The results in this text go back to patent USRE40831.

For the assay, the target named is hepatitis B virus surface antigen, ad antigen (Chemicon Cat. No. AG 850) (hepatitis B virus). Nature of the assay: competitive ELISA. Background: ELISA stands for enzyme-linked immunosorbent assay.

B1: Ab19.79.5, human monoclonal antibody secreted by hybridoma cell line 19.79.5 (ECACC Accession No. 96052168) (antibody, human IgG1, V domains shown)
VH: QVQLVESGGGVVQPGGSLRLSCAPSGFVFRSYGMHWVRQTPGKGLEWVSLIWHDGSNRFYADSVKGRFTISRDNSKNTLYLQMNSLRAEDTAMYFCARERLIAAPAAFDLWGQGTLVTVSS
VL: SYVLTQPPSVSVAPGKTARISCGGNNIGTKNVHWYQQKPGQAPVLVVYADSDRPSGIPERFSGSNSGNTATLTISRVEVGDEADYYCQVWDSVSYHVVFGGGTTLTVLG
As a reminder, the Kd is the constant that tells how readily two partners part at equilibrium. Lower therefore signals tighter binding. Take B1: the Kd came out at 1.3 nM.
